Measured values as given in the supplement of paper PMC9233669.
Variants at the floor of the assay were thinned out.

Columns and labels:
biotinyl-Phe-oxazolone = assay: self-aminoacylation, catalytic enhancement (BFO) (fold over background); higher = more active; k-Seq, kA / k0A0; sequences stand for … in GGGAAUGGAUCCACAUCUACGAAUUC…UUCACUGCAGACUUGACGAAGCUG
Outline: (§1)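 Each biotinyl-aminoacyl-oxazolone, at 2–1250 μM, was incubated with mutagenized RNA pools (0.43 μM) carrying a 21-nt variable region. The 50 μL reactions contained HEPES/NaCl/KCl/MgCl2/CaCl2 buffer with 5% acetonitrile at pH 6.9–7.0 and ran for 90 minutes at room temperature. After streptavidin capture, RNA was measured by qPCR in triplicate and by Illumina sequencing, and catalytic enhancement was calculated as median kA over the uncatalyzed rate from a pseudo-first-order fit of per-sequence fraction reacted.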

biotinyl-Trp-oxazolone = assay: self-aminoacylation, catalytic enhancement (BWO) (fold over background); higher = more active; k-Seq, kA / k0A0; sequences stand for … in GGGAAUGGAUCCACAUCUACGAAUUC…UUCACUGCAGACUUGACGAAGCUG
Outline: as §1

biotinyl-Ile-oxazolone = assay: self-aminoacylation, catalytic enhancement (BIO) (fold over background); higher = more active; k-Seq, kA / k0A0; sequences stand for … in GGGAAUGGAUCCACAUCUACGAAUUC…UUCACUGCAGACUUGACGAAGCUG
Outline: as §1

biotinyl-Met-oxazolone = assay: self-aminoacylation, catalytic enhancement (BMO) (fold over background); higher = more active; k-Seq, kA / k0A0; sequences stand for … in GGGAAUGGAUCCACAUCUACGAAUUC…UUCACUGCAGACUUGACGAAGCUG
Outline: as §1

biotinyl-Leu-oxazolone = assay: self-aminoacylation, catalytic enhancement (BLO) (fold over background); higher = more active; k-Seq, kA / k0A0; sequences stand for … in GGGAAUGGAUCCACAUCUACGAAUUC…UUCACUGCAGACUUGACGAAGCUG
Outline: as §1

biotinyl-Val-oxazolone = assay: self-aminoacylation, catalytic enhancement (BVO) (fold over background); higher = more active; k-Seq, kA / k0A0; sequences stand for … in GGGAAUGGAUCCACAUCUACGAAUUC…UUCACUGCAGACUUGACGAAGCUG
Outline: as §1

| Sequence | self-aminoacylation (biotinyl-Phe-oxazolone) | self-aminoacylation (biotinyl-Trp-oxazolone) | self-aminoacylation (biotinyl-Ile-oxazolone) | self-aminoacylation (biotinyl-Met-oxazolone) | self-aminoacylation (biotinyl-Leu-oxazolone) | self-aminoacylation (biotinyl-Val-oxazolone) |
| --- | --- | --- | --- | --- | --- | --- |
| CCACACGUCAAGCAAUCGGUC [Fam1B.1 aminoacylation ribozyme variant] | 0.848 | 1.16 | 1.11 | 1.16 | 1.17 | 1.65 |
| CCACACGUCAAGCAAUGGGUC [Fam1B.1 aminoacylation ribozyme variant] | 0.534 | 1.02 | 1.14 | 1.36 | 1.36 | 1.49 |
| CCACACGUCAAGCAGUCGGUC [Fam1B.1 aminoacylation ribozyme variant] | 0.584 | 1.17 | 0.995 | 1.05 | 1.26 | 1.69 |
| CCACACGUCAAGCAUUCGGUC [Fam1B.1 aminoacylation ribozyme variant] | 5.03 | 2.16 | 2.03 | 2.23 | 1.71 | 3.21 |
| CCACACGUCACGCAAUCGGUC [Fam1B.1 aminoacylation ribozyme variant] | 3.73 | 1.95 | 1.58 | 2.03 | 1.84 | 2.16 |
| CCACACGUUAAGCAAUCGGUC [Fam1B.1 aminoacylation ribozyme variant] | 1.05 | 0.931 | 1.09 | 0.992 | 0.93 | 1.15 |
| CCACACUACAAGCAAUCGGCC [Fam1B.1 aminoacylation ribozyme variant] | 1.99 | 1.78 | 2.44 | 2.7 | 1.57 | 2.06 |
| CCACACUACUAGCAAUCGGUC [Fam1B.1 aminoacylation ribozyme variant] | 0.743 | 0.623 | 0.798 | 0.694 | 0.71 | 0.753 |
| CCACACUCCAAGCAACCGGUC [Fam1B.1 aminoacylation ribozyme variant] | 0.853 | 0.654 | 1.24 | 0.814 | 1.19 | 1.44 |
| CCACACUCCAUGCAAUCGGUC [Fam1B.1 aminoacylation ribozyme variant] | 0.866 | 0.663 | 0.982 | 0.676 | 0.901 | 1.05 |
| CCACACUGCAAGCAACCGGUC [Fam1B.1 aminoacylation ribozyme variant] | 0.966 | 1.07 | 1.53 | 1.49 | 1.25 | 1.79 |
| CCACACUGCAAGCAAGCGGUC [Fam1B.1 aminoacylation ribozyme variant] | 1.05 | 1 | 1.34 | 0.878 | 1.23 | 1.61 |
| CCACACUGCAAGCAAUUGGUC [Fam1B.1 aminoacylation ribozyme variant] | 0.969 | 0.59 | 1.14 | 0.87 | 0.961 | 0.956 |
| CCACACUGCAAGCAUUCGGUC [Fam1B.1 aminoacylation ribozyme variant] | 8.26 | 3.51 | 2.37 | 2.04 | 2.58 | 2.96 |
| CCACACUGCGAGCAAUCGGUC [Fam1B.1 aminoacylation ribozyme variant] | 3.33 | 1.21 | 1.21 | 1.07 | 1.25 | 1.51 |
| CCACACUUAAAGCAAUCGGUU [Fam1B.1 aminoacylation ribozyme variant] | 0.794 | 0.916 | 1.08 | 0.896 | 0.849 | 1.15 |
| CCACACUUAAAGCAGUCGGUC [Fam1B.1 aminoacylation ribozyme variant] | 0.946 | 0.621 | 1.08 | 0.942 | 0.985 | 0.872 |
| CCACACUUAAAGCUAUCGGUC [Fam1B.1 aminoacylation ribozyme variant] | 0.762 | 0.89 | 1.03 | 0.887 | 0.915 | 1.1 |
| CCACACUUAAAGUAAUCGGUC [Fam1B.1 aminoacylation ribozyme variant] | 0.772 | 0.875 | 0.82 | 0.695 | 0.744 | 0.836 |
| CCACACUUAACGCAAUCGGUC [Fam1B.1 aminoacylation ribozyme variant] | 0.826 | 1.11 | 1.08 | 0.874 | 0.986 | 1.11 |
| CCACACUUCAAACAAUAGGUC [Fam1B.1 aminoacylation ribozyme variant] | 0.995 | 0.652 | 0.617 | 0.435 | 0.471 | 0.656 |
| CCACACUUCAAACAAUCGGAC [Fam1B.1 aminoacylation ribozyme variant] | 3.27 | 1.94 | 1.01 | 0.88 | 0.951 | 1 |
| CCACACUUCAAACAAUCGGUG [Fam1B.1 aminoacylation ribozyme variant] | 4.88 | 4.19 | 2.96 | 4.77 | 6.19 | 3.01 |
| CCACACUUCAAACAAUCGGUU [Fam1B.1 aminoacylation ribozyme variant] | 29.6 | 21.5 | 1.91 | 1.93 | 2.57 | 2.17 |
| CCACACUUCAAACAAUUGGUC [Fam1B.1 aminoacylation ribozyme variant] | 1.55 | 1 | 0.737 | 0.659 | 0.588 | 0.59 |
| CCACACUUCAAACAGUCGGUC [Fam1B.1 aminoacylation ribozyme variant] | 1.09 | 0.848 | 0.75 | 0.735 | 0.622 | 0.945 |

| Sequence | self-aminoacylation (biotinyl-Phe-oxazolone) | self-aminoacylation (biotinyl-Trp-oxazolone) | self-aminoacylation (biotinyl-Ile-oxazolone) | self-aminoacylation (biotinyl-Met-oxazolone) | self-aminoacylation (biotinyl-Leu-oxazolone) | self-aminoacylation (biotinyl-Val-oxazolone) |
| --- | --- | --- | --- | --- | --- | --- |
| CCACACUUCAAACUAUCGGUC [Fam1B.1 aminoacylation ribozyme variant] | 1.09 | 0.882 | 0.976 | 0.781 | 0.83 | 0.909 |
| CCACACUUCAACCAAACGGUC [Fam1B.1 aminoacylation ribozyme variant] | 0.797 | 0.727 | 0.872 | 0.628 | 0.729 | 0.846 |
| CCACACUUCAACCAAUGGGUC [Fam1B.1 aminoacylation ribozyme variant] | 0.603 | 0.377 | 0.685 | 0.499 | 0.593 | 0.759 |
| CCACACUUCAACUAAUCGGUC [Fam1B.1 aminoacylation ribozyme variant] | 22.8 | 11.6 | 0.859 | 0.753 | 1.04 | 0.925 |
| CCACACUUCAAGAAAUCGGCC [Fam1B.1 aminoacylation ribozyme variant] | 3.48 | 3.06 | 1.96 | 1.97 | 1.78 | 2.16 |
| CCACACUUCAAGAAAUCGUUC [Fam1B.1 aminoacylation ribozyme variant] | 0.735 | 0.399 | 0.472 | 0.482 | 0.529 | 0.602 |
| CCACACUUCAAGAACUCGGUC [Fam1B.1 aminoacylation ribozyme variant] | 0.548 | 0.586 | 0.836 | 0.696 | 1.01 | 1.01 |
| CCACACUUCAAGCAAAAGGUC [Fam1B.1 aminoacylation ribozyme variant] | 1.05 | 0.598 | 0.598 | 0.434 | 0.524 | 0.721 |
| CCACACUUCAAGCAAACGCUC [Fam1B.1 aminoacylation ribozyme variant] | 0.677 | 1.37 | 0.956 | 1.41 | 1.01 | 0.912 |
| CCACACUUCAAGCAACCGAUC [Fam1B.1 aminoacylation ribozyme variant] | 1.05 | 0.75 | 0.665 | 0.559 | 0.45 | 0.684 |
| CCACACUUCAAGCAACCGGUC [Fam1B.1 aminoacylation ribozyme variant] | 1.31 | 0.935 | 0.933 | 0.783 | 0.721 | 1.01 |
| CCACACUUCAAGCAACGGGUC [Fam1B.1 aminoacylation ribozyme variant] | 0.777 | 0.464 | 0.624 | 0.626 | 0.569 | 0.81 |
| CCACACUUCAAGCAACUGGUC [Fam1B.1 aminoacylation ribozyme variant] | 0.699 | 0.338 | 0.57 | 0.52 | 0.505 | 0.616 |
| CCACACUUCAAGCAAGCGGCC [Fam1B.1 aminoacylation ribozyme variant] | 0.898 | 1.46 | 2.38 | 2.63 | 3.28 | 2.96 |
| CCACACUUCAAGCAAGCGGUC [Fam1B.1 aminoacylation ribozyme variant] | 0.769 | 0.62 | 0.87 | 0.791 | 0.785 | 0.961 |
| CCACACUUCAAGCAAUAGCUC [Fam1B.1 aminoacylation ribozyme variant] | 0.859 | 0.427 | 0.691 | 0.708 | 0.941 | 0.816 |
| CCACACUUCAAGCAAUCACUC [Fam1B.1 aminoacylation ribozyme variant] | 0.957 | 0.564 | 0.591 | 0.509 | 0.43 | 0.669 |
| CCACACUUCAAGCAAUCCGUU [Fam1B.1 aminoacylation ribozyme variant] | 0.872 | 1.45 | 1.4 | 1.31 | 1.27 | 1.27 |
| CCACACUUCAAGCAAUCGAAC [Fam1B.1 aminoacylation ribozyme variant] | 0.953 | 0.578 | 0.557 | 0.402 | 0.41 | 0.76 |
| CCACACUUCAAGCAAUCGCUC [Fam1B.1 aminoacylation ribozyme variant] | 1.2 | 1.29 | 1.33 | 1.3 | 1.27 | 1.44 |
| CCACACUUCAAGCAAUCGGAG [Fam1B.1 aminoacylation ribozyme variant] | 0.817 | 1.03 | 0.874 | 0.743 | 0.591 | 1.16 |
| CCACACUUCAAGCAAUCGUAC [Fam1B.1 aminoacylation ribozyme variant] | 1.29 | 0.546 | 0.473 | 0.351 | 0.58 | 0.669 |
| CCACACUUCAAGCAAUCUCUC [Fam1B.1 aminoacylation ribozyme variant] | 0.826 | 0.383 | 0.61 | 0.514 | 0.385 | 0.669 |
| CCACACUUCAAGCAAUCUGGC [Fam1B.1 aminoacylation ribozyme variant] | 0.94 | 0.834 | 0.851 | 0.71 | 0.804 | 0.861 |
| CCACACUUCAAGCAAUGGGUA [Fam1B.1 aminoacylation ribozyme variant] | 0.907 | 1.35 | 1.35 | 1.39 | 1.31 | 1.4 |
